Reference: US10597649B2, “Tau protease compositions and methods of use” (Oligomerix, Inc., priority 2011, dated 2020)

Columns and labels:
Format in all cases: biochemical
Tau 4R2N = molecular target: T1, Tau 4R2N (Homo sapiens, UniProt P10636); assay: Autoproteolytic activity of purified tau monomer, dimer and trimer (SDS-PAGE)
T1 construct: Stabilization buffer enables production of full length monomer, dimer and trimer for tau protease; made in house; host or cells: E. coli BL21 (DE3) Gold
Protocol: This example describes the identification of the autoproteolytic activity of tau oligomers.
Purified recombinant human tau 4R2N was prepared as described in the flow chart. Monomer, dimer and trimer species were purified preparative electrophoresis from a tau 4R2N preparation that had formed oligomers. The electrophoresis buffer contained 0.1% SDS which inhibited the proteolytic activity. Fractions containing the tau species were buffer exchanged into 25 mM Tris-HCl pH 7.4 using and Amicon ultrafiltration device (Merck Millipore, Billerica, Mass.), which led to restoration of tau autoproteolytic activity. Protein concentrations of the preparations were determined using the BCA kit (ThemoFisher Scientific). Samples were run on a pre-cast 4-20% polyacrylamide Tris-HCl gel (BioRad, Hercules, Calif.) without using reductant in order to visualize the disulfide mediated oligomers. The gel was stained with GelCodeBlue Safe (ThermoFisher Scientific, Rockford, Ill.). Lane 1: 5.2 μg of tau 4R2N oligomer standard; Lane 2: 2 microliter of monomer fraction before buffer exchange; Lane 3: 0.5 μg monomer after buffer exchange; Lane 4: […] of dimer fraction before buffer exchange; Lane 5: 0.5 μg dimer after buffer exchange; Lane 6: 20 μL trimer fraction before buffer exchange; Lane 7: 0.5 μg trimer after buffer exchange.
Tau 4R2N undergoes autoproteolytic cleavage (self-cleavage) when it forms disulfide-mediated oligomers upon incubation. Tau autoproteolyic activity co-purified with the dimer and trimer species. The amount of autoproteolytic activity was greatest with trimer which fragmented to the extent where no full size trimer remained after incubation. […] It was also shown that Tau autoproteolytic activity co-purified with dimer and trimer species. […] Full-length trimer digested completely into smaller fragments, and upon incubation, monomer formed an oligomeric ladder that produced a low level of autoproteolytic activity.
(§1) Monomer, Dimer, and Trimer of Tau 441 were purified under non-reducing conditions using continuous-elution electrophoresis. Fractions of each oligomer sample were pooled and buffer exchanged into stabilization buffer using an Amicon spin concentrator with a molecular weight cut-off of 30,000 daltons. 0.35 μg of each sample was incubated overnight at 37° C. while non-incubated control was kept on ice at 4° C. Next day, 2×SDS sample buffer without reductant was added to each sample and loaded onto a 4-20% gradient Tris-HCl Criterion Gel (Bio-Rad, Hercules, Calif.).
as §1, with “This example presents results from a contamination control study of tau protease. Monomer,” for “Monomer,”, “2× sodium dodecyl sulfate” for “2×SDS”
Lane 1—tau oligomer ladder standard; Lane 2—empty; Lane 3—purified monomer no incubation (fraction from purification plate); Lane 4—purified monomer without incubation; Lane 5—purified monomer with incubation; Lane 6—purified dimer without incubation; Lane 7—purified dimer with incubation; Lane 8—purified trimer without incubation; purified trimer with incubation overnight at 37° C. Lanes 3-9 were treated with sample buffer containing β-mercaptoethanol (BME).

[1] = system: Tau 4R1N oligomer mixture; assay: Cleavage of tau 4R1N by tau 4R2N trimer (SDS-PAGE); conditions: overnight at 37° C.
Protocol: Tau oligomer formation leads to gain of toxic function and loss of function of tau monomer degraded by tau 4R2N trimer activity. Lane 1: Tau 4R2N monomer (0.1 μg); Lane 2: 1× Sample Buffer without reductant; Lane 3: 4R2N Trimer, no 4R1N; Lane 4:Tau 4R1N, no tau 4R2N trimer; Lane 5: Tau 4R2N trimer:tau 4R1N, 1:10; Lane 6: Tau 4R2N trimer:tau 4R1N trimer, 1:100; Lane 7: Tau 4R2N trimer:tau 4R1N 1:10. […] The arrows indicate fragments of tau 4R1N that are generated from tau 4R2N trimer protease activity. For the upper arrow, the fragments have the same apparent MW between the two isoforms, the lower arrow fragments differ with the fragment from tau 4R1N migrating faster than the fragment from tau 4R2N;

[2] = system: Human APP 667-676 peptide; assay: Cleavage of APP 667-676 peptide (HPLC); conditions: 20 hr at 37° C.
Protocol: Human APP 667-676 peptide [[…](SEQ ID NO:14) (Anaspec, Fremont, Calif., USA)] was incubated 20 hr at 37° C. with or without […] tau 4R2N trimer protease and analyzed by reverse phase HPLC (SystemGold® 32Karat™ LC-CE System, Beckman Coulter, Inc.) using a linear gradient of 0 to 60% acetonitrile in 0.1% TFA on an analytical C18 column (12.5 cm×2.1 mm, […], Supelco). […] The asterisk indicates an artifactual peak unrelated to the peptide. Tau 4R2N trimer protease cut APP at the penultimate amino acid adjacent to the β-secretase (BACE) cut site thereby generating Aβ(1-42). Tau protease activity has been observed extracellularly in the CSF. Generation of Aβ(1-42) can stimulate inflammation within a neuron leading to BACE up-regulation. Furthermore Aβ(1-42) has been observed in plaques and can be converted to Aβ(1-42) by BACE cleavage of the N-terminal methionine. The implications are that tau protease may be the initial activation step for the amyloid cascade;

T1 sequence (P10636 1-441 isoform P10636-8): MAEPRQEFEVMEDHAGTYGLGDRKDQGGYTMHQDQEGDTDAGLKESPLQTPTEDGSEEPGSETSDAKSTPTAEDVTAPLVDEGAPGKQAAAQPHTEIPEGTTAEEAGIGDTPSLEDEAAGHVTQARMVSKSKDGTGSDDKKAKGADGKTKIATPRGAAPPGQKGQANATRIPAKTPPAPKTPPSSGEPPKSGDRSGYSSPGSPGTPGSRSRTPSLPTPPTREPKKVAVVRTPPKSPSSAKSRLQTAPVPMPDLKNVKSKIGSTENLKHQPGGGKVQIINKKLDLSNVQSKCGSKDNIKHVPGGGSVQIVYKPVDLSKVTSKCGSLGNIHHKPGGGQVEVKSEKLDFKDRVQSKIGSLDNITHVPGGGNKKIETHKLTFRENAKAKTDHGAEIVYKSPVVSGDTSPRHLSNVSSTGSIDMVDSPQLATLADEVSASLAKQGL

degradation in contamination control study (Example 3) (Tau 4R2N; 0.35 μg, overnight at 37° C., equal sample volumes from purification): preferentially degraded | autoproteolytic activity (Example 1) (Tau 4R2N; after buffer exchange into 25 mM Tris-HCl pH 7.4, incubation at 37° C.): greatest
Substance: tau 4R2N trimer: purified disulfide-mediated trimer species of recombinant human tau 4R2N
cutting of tau 4R1N [1]: cuts tau (4R1N) monomer and tau dimer | cutting of APP 667-676 peptide [2]: cuts APP 667-676 peptide
